The target of assay [1] is Lactobacillus brevis ATCC 8287 SlpA surface layer protein (Lactobacillus brevis ATCC 8287) (UniProt Q05044). Nature of the assay: SPR (BIAcore 3000), immobilised SlpA preincubated with 1 mM benzamidine, fibronectin injected, steady-state evaluation.
The target is the same in assay [2]. Nature of the assay: SPR (BIAcore 3000), SlpA immobilised on CM5 chip, fibronectin injected, 1:1 Langmuir fit.
Assay [3] shares this target. Nature of the assay: SPR (BIAcore 3000), SlpA immobilised on CM5 chip, collagen injected, 1:1 Langmuir fit.
Assay [4] shares this target. In words: SPR (BIAcore 3000), Kd of laminin compared with Kd of fibronectin on immobilised SlpA.
Assay [5] addresses T1, Laminin (basement membrane of Engelbreth-Holm-Swarm mouse sarcoma) (mouse, UniProt P19137 25-3083; P02469 22-1786; P02468 34-1607).
T1 construct: mature; Bought from Sigma
Nature of the assay: SPR (BIAcore 3000), immobilised SlpA preincubated with 1 mM benzamidine, laminin injected, 1:1 Langmuir fit.

Assay [6] concerns the target T2, Fibrinogen (human plasma) (human, UniProt P02671 20-629; P02675 31-491; P02679 27-453, limits assumed).
T2 construct: mature; Bought from Calbiochem
T2 sequence (looked up) 1: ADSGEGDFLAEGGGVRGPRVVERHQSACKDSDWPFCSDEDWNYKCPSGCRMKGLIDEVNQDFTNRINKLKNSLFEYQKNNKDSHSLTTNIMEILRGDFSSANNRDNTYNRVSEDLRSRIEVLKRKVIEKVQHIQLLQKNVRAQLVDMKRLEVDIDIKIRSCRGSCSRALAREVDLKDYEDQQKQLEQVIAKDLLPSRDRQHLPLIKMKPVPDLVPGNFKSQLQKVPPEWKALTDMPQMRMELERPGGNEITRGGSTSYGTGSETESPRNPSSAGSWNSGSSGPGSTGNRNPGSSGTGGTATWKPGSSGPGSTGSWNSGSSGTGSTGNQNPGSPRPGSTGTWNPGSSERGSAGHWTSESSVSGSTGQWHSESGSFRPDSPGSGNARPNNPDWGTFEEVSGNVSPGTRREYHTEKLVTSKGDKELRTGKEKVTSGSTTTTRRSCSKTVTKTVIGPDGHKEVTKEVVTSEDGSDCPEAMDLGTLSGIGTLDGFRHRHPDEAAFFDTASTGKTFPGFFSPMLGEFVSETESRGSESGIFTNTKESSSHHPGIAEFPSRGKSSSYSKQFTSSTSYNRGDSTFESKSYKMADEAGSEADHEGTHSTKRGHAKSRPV
T2 sequence (looked up) 2: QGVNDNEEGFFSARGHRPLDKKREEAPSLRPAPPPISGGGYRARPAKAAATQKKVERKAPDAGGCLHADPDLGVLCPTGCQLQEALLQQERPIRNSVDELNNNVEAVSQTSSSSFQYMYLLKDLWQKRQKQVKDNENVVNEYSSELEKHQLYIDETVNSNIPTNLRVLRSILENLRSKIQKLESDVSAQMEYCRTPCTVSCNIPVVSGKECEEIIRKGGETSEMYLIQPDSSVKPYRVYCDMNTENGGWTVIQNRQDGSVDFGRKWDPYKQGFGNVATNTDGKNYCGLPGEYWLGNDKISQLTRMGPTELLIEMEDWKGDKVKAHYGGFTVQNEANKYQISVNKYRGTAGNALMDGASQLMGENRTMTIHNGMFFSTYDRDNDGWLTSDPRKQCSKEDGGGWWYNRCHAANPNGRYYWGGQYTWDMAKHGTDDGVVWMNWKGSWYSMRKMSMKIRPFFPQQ
T2 sequence (looked up) 3: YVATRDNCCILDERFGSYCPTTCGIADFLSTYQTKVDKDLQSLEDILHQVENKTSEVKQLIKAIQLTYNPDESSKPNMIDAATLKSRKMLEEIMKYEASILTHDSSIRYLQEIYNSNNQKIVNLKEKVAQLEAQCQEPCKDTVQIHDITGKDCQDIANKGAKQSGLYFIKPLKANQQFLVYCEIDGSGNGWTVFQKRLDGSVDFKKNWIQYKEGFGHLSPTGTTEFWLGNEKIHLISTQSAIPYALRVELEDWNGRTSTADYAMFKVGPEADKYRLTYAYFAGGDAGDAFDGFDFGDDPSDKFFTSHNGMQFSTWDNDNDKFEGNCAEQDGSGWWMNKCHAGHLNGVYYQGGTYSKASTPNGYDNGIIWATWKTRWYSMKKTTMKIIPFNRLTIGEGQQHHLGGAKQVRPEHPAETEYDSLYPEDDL
Nature of the assay: SPR (BIAcore 3000), SlpA immobilised on CM5 chip, fibrinogen injected; Table 2 value. As to the method: (§1) The interaction between SlpA and extracellular matrix components was evaluated by surface plasmon resonance on a BIAcore 3000 instrument. Purified SlpA protein in 5M LiCl was dialyzed against double-distilled water overnight. Monomeric and/or oligomeric protein was separated from self-assembled material by centrifugation at 20,000×g for 20 min. SlpA protein (50 ug/ml in 10 mM Sodium Phosphate pH 7.4) was covalently coupled to CM5 carboxylated dextran chips using N-hydroxysuccinimide (NHS) chemistry. […] Kinetic analysis was carried out at 25° C. in 10 mM HEPES, 150 mM NaCl, 3 mM EDTA, 0.005% surfactant P20, pH 7.4. […] Binding was determined experimentally by comparing the number of RU's observed as a function of time to an activated and blocked flow cell containing no linked protein. […] Data were evaluated using the BIAevaluation 4.1 software. The association and dissociation data were modeled with the BIAevaluation 4.1 software (Pharmacia Biosensor AB). Following subtraction of data from the control flow cell, the binding data produced for the various protein concentrations were fitted simultaneously, assuming the 1:1 Langmuir model.
(§2) The association and dissociation rate constants were estimated from the binding data at different concentrations using the BIAevaluation software and from these values the binding constant was calculated (Table 2).

Assay [7] addresses T1, Laminin (basement membrane of …). Nature of the assay: SPR (BIAcore 3000), SlpA immobilised on CM5 chip, laminin injected, 1:1 Langmuir fit. As for the experimental part:
as §1, §2

On to “Fibronectin (human plasma) (from UniProt P02751 32-2477)”, for which the Kd in assay [1] worked out at 30.1 µM. Also, in assay [2], the Kd came to 0.0898 µM and the koff came to 0.00632 s⁻¹.

Regarding “Collagen (human placenta Type IV) (from UniProt P02462 28-1440; P08572 26-1484)”, in assay [3], the Kd was found to be 31.8 µM and the koff was 0.0011 s⁻¹.

For the molecule “Laminin (basement membrane of Engelbreth-Holm-Swarm mouse sarcoma), P19137 25-3083; P02469 22-1786; P02468 34-1607”, the fold higher affinity than for fibronectin in assay [4] was determined as 3 fold.

B1: Lactobacillus brevis ATCC 8287 SlpA surface layer protein (other, UniProt Q05044 31-465, looked up)
chain: KSYATAGAYSTLKTDAATRNVEATGTNALYTKPGTVKGAKVVASKATMAKLASSKKSADYFRAYGVKTTNRGSVYYRVVTMDGKYRGYVYGGKSDTAFAGGIKSAETTTKADMPARTTGFYLTDTSKNTLWTAPKYTQYKASKVSLYGVAKDTKFTVDQAATKTREGSLYYHVTATNGSGISGWIYAGKGFSTTATGTQVLGGLSTDKSVTATNDNSVKIVYRTTDGTQVGSNTWVTSTDGTKAGSKVSDKAADQTALEAYINANKPSGYTVTNPNAADATYGNTVYATVSQAATSKVALKVSGTPVTTALTTADANDKVAANDTTANGSSVAGSTVYAAGTKLAQLTTDLTGEKGQVVTLTAIDTDLEDATFTGTTTYYSDLGKAYHYTYTYNKDSAASSNASTQFGSNVTGTLTATLVMGKSTATANGTTWFN
notes: mature; Native protein purified from the bacterium; The soluble monomeric and/or oligomeric fraction after dialysis and centrifugation was covalently coupled (NHS chemistry) to a CM5 chip, about 1700 RU; also called S-layer protein; Surface Layer Protein A
Take B1: the Kd in assay [5] turned out to be 0.066 µM; in assay [6], 26.1 µM; in assay [7], 0.0267 µM. The koff in assay [5] came to 0.002 s⁻¹; in assay [7], 0.0013 s⁻¹.

These data come from patent publication US20090214662A1 (UNIVERSITY OF MARYLAND BALTIMORE, published 2009).
